Data taken from PMC3087504, “DNA Damage in Oocytes Induces a Switch of the Quality Control Factor TAp63α from Dimer to Tetramer” (Cell, 2011).

Assays:
[1] = target: the molecule itself; assay: AUC; sedimentation velocity, 45,000 rpm, 4 μM protein, 4°C, 20 mM potassium phosphate pH 7.5, 200 mM NaCl, 2 mM dithiothreitol
[2] = target: the molecule itself; assay: SEC; lysate of 16 ovaries of non-irradiated or γ-irradiated (0.52 Gy) P5 mice, Superose 6 PC 3.2/30, 4°C, 50 mM sodium phosphate, 100 mM NaCl, phosphatase inhibitors; fractions blotted with 4A4; dimer fraction 1.55 ml, tetramer fraction 1.3 ml
[3] = target: the molecule itself; assay: SEC; lysate of ovaries of irradiated mice incubated with λ-Protein Phosphatase (30°C, 45 min, 1.25 mM MnCl2), then Superose 6 PC 3.2/30 and western blot

Protein | stoichiometry N [2] | other results
MBP-TAp63γ (natural protein, mouse, UniProt O88898-5 40-483, looked up, 193 amino acids less per monomer than TAp63α; cloned into pMAL-c4X; almost equal distribution between dimers and tetramers at 30 nM; source: E. coli (T7 express), purified (Ni-Sepharose, Amylose resin, SEC); not shown: MBP, N-terminal, kept) MSQSTQTSEFLSPEVFQHIWDFLEQPICSVQPIELNFVDEPSENGATNKIEISMDCIRMQDSDLSDPMWPQYTNLGLLNSMDQQIQNGSSSTSPYNTDHAQNSVTAPSPYAQPSSTFDALSPSPAIPSNTDYPGPHSFDVSFQQSSTAKSATWTYSTELKKLYCQIAKTCPIQIKVMTPPPQGAVIRAMPVYKKAEHVTEVVKRCPNHELSREFNEGQIAPPSHLIRVEGNSHAQYVEDPITGRQSVLVPYEPPQVGTEFTTVLYNFMCNSSCVGGMNRRPILIIVTLETRDGQVLGRRCFEARICACPGRDRKADEDSIRKQQVSDSAKNGDAFRQNTHGIQMTSIKKRRSPDDELLYLPVRGRETYEMLLKIKESLELMQYLPQHTIETYRQQQQQQHQHLLQKHLLSACFRNELVEPRGEAPTQSDVFFRHSNPPNHSVYP |  | stoichiometry N [1]: 4
TAp63α in oocytes of non-irradiated mice (natural protein, UniProt O88898-1 40-680, looked up, endogenous murine TAp63α of oocytes; also called TAp63α (NIRR); source: endogenous, ovary lysate of non-irradiated P5 CD-1 mice) MSQSTQTSEFLSPEVFQHIWDFLEQPICSVQPIELNFVDEPSENGATNKIEISMDCIRMQDSDLSDPMWPQYTNLGLLNSMDQQIQNGSSSTSPYNTDHAQNSVTAPSPYAQPSSTFDALSPSPAIPSNTDYPGPHSFDVSFQQSSTAKSATWTYSTELKKLYCQIAKTCPIQIKVMTPPPQGAVIRAMPVYKKAEHVTEVVKRCPNHELSREFNEGQIAPPSHLIRVEGNSHAQYVEDPITGRQSVLVPYEPPQVGTEFTTVLYNFMCNSSCVGGMNRRPILIIVTLETRDGQVLGRRCFEARICACPGRDRKADEDSIRKQQVSDSAKNGDGTKRPFRQNTHGIQMTSIKKRRSPDDELLYLPVRGRETYEMLLKIKESLELMQYLPQHTIETYRQQQQQQHQHLLQKQTSMQSQSSYGNSSPPLNKMNSMNKLPSVSQLINPQQRNALTPTTMPEGMGANIPMMGTHMPMAGDMNGLSPTQALPPPLSMPSTSHCTPPPPYPTDCSIVSFLARLGCSSCLDYFTTQGLTTIYQIEHYSMDDLASLKIPEQFRHAIWKGILDHRQLHDFSSPPHLLRTPSGASTVSVGSSETRGERVIDAVRFTLRQTISFPPRDEWNDFNFDMDSRRNKQQRIKEEGE | 2 | 
phosphorylated TAp63α in oocytes of γ-irradiated mice (natural protein, UniProt O88898-1 40-680, looked up, phosphorylated after γ-irradiation; sites not stated, endogenous murine TAp63α of oocytes, phosphorylated after DNA damage; both dimer and tetramer fractions hold protein after irradiation; also called TAp63α (IRR); source: endogenous, ovary lysate of P5 CD-1 mice 6 hr after 0.52 Gy γ-irradiation) MSQSTQTSEFLSPEVFQHIWDFLEQPICSVQPIELNFVDEPSENGATNKIEISMDCIRMQDSDLSDPMWPQYTNLGLLNSMDQQIQNGSSSTSPYNTDHAQNSVTAPSPYAQPSSTFDALSPSPAIPSNTDYPGPHSFDVSFQQSSTAKSATWTYSTELKKLYCQIAKTCPIQIKVMTPPPQGAVIRAMPVYKKAEHVTEVVKRCPNHELSREFNEGQIAPPSHLIRVEGNSHAQYVEDPITGRQSVLVPYEPPQVGTEFTTVLYNFMCNSSCVGGMNRRPILIIVTLETRDGQVLGRRCFEARICACPGRDRKADEDSIRKQQVSDSAKNGDGTKRPFRQNTHGIQMTSIKKRRSPDDELLYLPVRGRETYEMLLKIKESLELMQYLPQHTIETYRQQQQQQHQHLLQKQTSMQSQSSYGNSSPPLNKMNSMNKLPSVSQLINPQQRNALTPTTMPEGMGANIPMMGTHMPMAGDMNGLSPTQALPPPLSMPSTSHCTPPPPYPTDCSIVSFLARLGCSSCLDYFTTQGLTTIYQIEHYSMDDLASLKIPEQFRHAIWKGILDHRQLHDFSSPPHLLRTPSGASTVSVGSSETRGERVIDAVRFTLRQTISFPPRDEWNDFNFDMDSRRNKQQRIKEEGE | 4 | 
λ-phosphatase-treated TAp63α obtained from irradiated oocytes (natural protein, UniProt O88898-1 40-680, looked up, endogenous murine TAp63α of irradiated oocytes after dephosphorylation in the lysate; kept apart because it was first phosphorylated in vivo and then dephosphorylated; also called dephosphorylated TAp63α (IRR + λPP); source: endogenous, ovary lysate of irradiated P5 mice, treated with λ-Protein Phosphatase (30°C, 45 min)) MSQSTQTSEFLSPEVFQHIWDFLEQPICSVQPIELNFVDEPSENGATNKIEISMDCIRMQDSDLSDPMWPQYTNLGLLNSMDQQIQNGSSSTSPYNTDHAQNSVTAPSPYAQPSSTFDALSPSPAIPSNTDYPGPHSFDVSFQQSSTAKSATWTYSTELKKLYCQIAKTCPIQIKVMTPPPQGAVIRAMPVYKKAEHVTEVVKRCPNHELSREFNEGQIAPPSHLIRVEGNSHAQYVEDPITGRQSVLVPYEPPQVGTEFTTVLYNFMCNSSCVGGMNRRPILIIVTLETRDGQVLGRRCFEARICACPGRDRKADEDSIRKQQVSDSAKNGDGTKRPFRQNTHGIQMTSIKKRRSPDDELLYLPVRGRETYEMLLKIKESLELMQYLPQHTIETYRQQQQQQHQHLLQKQTSMQSQSSYGNSSPPLNKMNSMNKLPSVSQLINPQQRNALTPTTMPEGMGANIPMMGTHMPMAGDMNGLSPTQALPPPLSMPSTSHCTPPPPYPTDCSIVSFLARLGCSSCLDYFTTQGLTTIYQIEHYSMDDLASLKIPEQFRHAIWKGILDHRQLHDFSSPPHLLRTPSGASTVSVGSSETRGERVIDAVRFTLRQTISFPPRDEWNDFNFDMDSRRNKQQRIKEEGE |  | stoichiometry N [3]: 4
